Patent publication US20260001928A1 (CORTERIA PHARMACEUTICALS, priority 2022, published 2026)
One block for each binder: values may come before it. *1 amine or outer side, *2 acyl side, *3 side chain or, on linkers, in order; H or OH if unused. Side-chain parts run from the residue outwards. [ ]: non-standard residue; d: D form. The star is where a group is joined. C20 diacid = O=C(O)CCCCCCCCCCCCCCCCCCC(=O)*; γGlu = O=C(O)[C@H](CCC(=O)[*:2])N[*:1]; AEEA = NCCOCCOCC(=O)O; Aib = CC(C)(N)C(=O)O

Legend:
[1] = molecular target: Rat CRF2 a (corticotropin-releasing factor receptor 2), on the A7R5 rat aortic smooth muscle cell line (rat, UniProt P47866 20-411); assay: cell-based or functional assay
Chain of Rat CRF2 a (corticotropin-releasing factor receptor 2), on the A7R5 rat aortic smooth muscle cell line (P47866 20-411): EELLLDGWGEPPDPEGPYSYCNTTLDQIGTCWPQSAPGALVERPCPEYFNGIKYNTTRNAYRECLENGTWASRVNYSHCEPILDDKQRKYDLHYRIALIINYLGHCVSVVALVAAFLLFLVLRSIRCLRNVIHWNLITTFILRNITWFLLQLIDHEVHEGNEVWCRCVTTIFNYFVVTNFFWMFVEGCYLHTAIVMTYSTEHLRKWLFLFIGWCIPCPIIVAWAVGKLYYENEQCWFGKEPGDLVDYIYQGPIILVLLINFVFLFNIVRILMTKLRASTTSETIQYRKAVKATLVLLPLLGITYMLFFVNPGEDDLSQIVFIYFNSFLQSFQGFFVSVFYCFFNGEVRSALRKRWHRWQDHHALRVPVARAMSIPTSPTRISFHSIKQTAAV

[2] = molecular target: T1, CRF1R (corticotropin-releasing factor receptor 1), on the CRF1R-overexpression CHO-K1 cell line clone 2 (UniProt P34998 24-415, limits assumed); assay: cell-based or functional assay
T1 sequence (looked up): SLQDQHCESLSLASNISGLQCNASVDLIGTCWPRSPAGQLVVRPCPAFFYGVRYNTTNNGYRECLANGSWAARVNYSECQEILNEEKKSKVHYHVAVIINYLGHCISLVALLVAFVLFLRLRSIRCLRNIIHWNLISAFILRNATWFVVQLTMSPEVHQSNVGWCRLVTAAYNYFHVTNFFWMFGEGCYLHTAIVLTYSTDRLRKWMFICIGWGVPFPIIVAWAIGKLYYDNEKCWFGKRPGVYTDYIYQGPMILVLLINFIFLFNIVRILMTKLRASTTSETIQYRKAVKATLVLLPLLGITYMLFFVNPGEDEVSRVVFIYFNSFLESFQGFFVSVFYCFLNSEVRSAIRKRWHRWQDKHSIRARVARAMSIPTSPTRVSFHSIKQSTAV

EC50 [nM] 0% HSA (cAMP, A7R5 rat aortic smooth muscle cells) [1]: 2.3 nM | EC50 [nM] (cAMP, CRF1R-overexpression CHO-K1 cells) [2]: > 250 nM | Emax (% I) (cAMP, 100% = Sauvagine at 100 nM) [2]: 4 % I
B1: peptide of SEQ ID NO: 240 (peptide)
peptide: Ac-IVLSLD[dV]PIKLK([AEEA-AEEA-γGlu-C20 diacid])KILLEQEKQKAQREQAETN[Aib]QILAQV-NH2
SMILES: CC[C@H](C)[C@H](NC(C)=O)C(=O)N[C@H](C(=O)N[C@@H](CC(C)C)C(=O)N[C@@H](CO)C(=O)N[C@@H](CC(C)C)C(=O)N[C@@H](CC(=O)O)C(=O)N[C@@H](C(=O)N1CCC[C@H]1C(=O)N[C@H](C(=O)N[C@@H](CCCCN)C(=O)N[C@@H](CC(C)C)C(=O)N[C@@H](CCCCNC(=O)COCCOCCNC(=O)COCCOCCNC(=O)CC[C@H](NC(=O)CCCCCCCCCCCCCCCCCCC(=O)O)C(=O)O)C(=O)N[C@@H](CCCCN)C(=O)N[C@H](C(=O)N[C@@H](CC(C)C)C(=O)N[C@@H](CC(C)C)C(=O)N[C@@H](CCC(=O)O)C(=O)N[C@@H](CCC(N)=O)C(=O)N[C@@H](CCC(=O)O)C(=O)N[C@@H](CCCCN)C(=O)N[C@@H](CCC(N)=O)C(=O)N[C@@H](CCCCN)C(=O)N[C@@H](C)C(=O)N[C@@H](CCC(N)=O)C(=O)N[C@@H](CCCNC(=N)N)C(=O)N[C@@H](CCC(=O)O)C(=O)N[C@@H](CCC(N)=O)C(=O)N[C@@H](C)C(=O)N[C@@H](CCC(=O)O)C(=O)N[C@H](C(=O)N[C@@H](CC(N)=O)C(=O)NC(C)(C)C(=O)N[C@@H](CCC(N)=O)C(=O)N[C@H](C(=O)N[C@@H](CC(C)C)C(=O)N[C@@H](C)C(=O)N[C@@H](CCC(N)=O)C(=O)N[C@H](C(N)=O)C(C)C)[C@@H](C)CC)[C@@H](C)O)[C@@H](C)CC)[C@@H](C)CC)C(C)C)C(C)C

EC50 [nM] 0% HSA (cAMP, A7R5 rat aortic smooth muscle cells) [1]: 0.09 nM | EC50 [nM] (cAMP, CRF1R-overexpression CHO-K1 cells) [2]: > 250 nM | Emax (% I) (cAMP, 100% = Sauvagine at 100 nM) [2]: 12 % I
B2: peptide of SEQ ID NO: 238 (peptide)
peptide: Ac-IVLSLD[dV]PIKLK([AEEA-AEEA-γGlu-C20 diacid])KILLEQEKQKKQREQAETN[Aib]QILAQV-NH2
SMILES: CC[C@H](C)[C@H](NC(C)=O)C(=O)N[C@H](C(=O)N[C@@H](CC(C)C)C(=O)N[C@@H](CO)C(=O)N[C@@H](CC(C)C)C(=O)N[C@@H](CC(=O)O)C(=O)N[C@@H](C(=O)N1CCC[C@H]1C(=O)N[C@H](C(=O)N[C@@H](CCCCN)C(=O)N[C@@H](CC(C)C)C(=O)N[C@@H](CCCCNC(=O)COCCOCCNC(=O)COCCOCCNC(=O)CC[C@H](NC(=O)CCCCCCCCCCCCCCCCCCC(=O)O)C(=O)O)C(=O)N[C@@H](CCCCN)C(=O)N[C@H](C(=O)N[C@@H](CC(C)C)C(=O)N[C@@H](CC(C)C)C(=O)N[C@@H](CCC(=O)O)C(=O)N[C@@H](CCC(N)=O)C(=O)N[C@@H](CCC(=O)O)C(=O)N[C@@H](CCCCN)C(=O)N[C@@H](CCC(N)=O)C(=O)N[C@@H](CCCCN)C(=O)N[C@@H](CCCCN)C(=O)N[C@@H](CCC(N)=O)C(=O)N[C@@H](CCCNC(=N)N)C(=O)N[C@@H](CCC(=O)O)C(=O)N[C@@H](CCC(N)=O)C(=O)N[C@@H](C)C(=O)N[C@@H](CCC(=O)O)C(=O)N[C@H](C(=O)N[C@@H](CC(N)=O)C(=O)NC(C)(C)C(=O)N[C@@H](CCC(N)=O)C(=O)N[C@H](C(=O)N[C@@H](CC(C)C)C(=O)N[C@@H](C)C(=O)N[C@@H](CCC(N)=O)C(=O)N[C@H](C(N)=O)C(C)C)[C@@H](C)CC)[C@@H](C)O)[C@@H](C)CC)[C@@H](C)CC)C(C)C)C(C)C
